Test results: US20260117203A1, “MUTANT KETOREDUCTASE WITH INCREASED KETOREDUCTASE ACTIVITY AS WELL AS METHODS AND USES INVOLVING THE SAME” (Hoffmann-La Roche Inc., priority 2023, published 2026)

Columns and labels:
Assay type in all cases: biochemical, Sporidiobolus salmonicolor
[1] = substrate: C[C@@H]1CC(=O)c2ncnc(N3CCN(C(=O)OC(C)(C)C)CC3)c21; assay: Kinetic characterization (app. KM, app. kcat), Table 9c, variant E00144; settings: other: E00144; pH 7.0
[2] = substrate: C[C@@H]1CC(=O)c2ncnc(N3CCN(C(=O)OC(C)(C)C)CC3)c21; assay: Kinetic characterization (app. KM, app. kcat), Table 9c, wild type; settings: other: WT; pH 7.0
[3] = substrate: C[C@@H]1CC(=O)c2ncnc(N3CCN(C(=O)OC(C)(C)C)CC3)c21; assay: Kinetic characterization (app. KM, app. kcat), Table 9c, variant E00184 (second line); settings: other: E00184, second line; pH 7.0
[4] = substrate: C[C@@H]1CC(=O)c2ncnc(N3CCN(C(=O)OC(C)(C)C)CC3)c21; assay: Kinetic characterization (app. KM, app. kcat), Table 9c, variant E00184 (first line); settings: other: E00184, first line; pH 7.0
[5] = substrate: C[C@@H]1CC(=O)c2ncnc(N3CCN(C(=O)OC(C)(C)C)CC3)c21; assay: Kinetic characterization (app. KM, app. kcat), Table 9c, variant E00128; settings: other: E00128; pH 7.0
[6] = substrate: C[C@@H]1CC(=O)c2ncnc(N3CCN(C(=O)OC(C)(C)C)CC3)c21; assay: Kinetic characterization (app. KM, app. kcat), Table 9c, variant E00158; settings: other: E00158; pH 7.0

B1: Sporidiobolus salmonicolor ketoreductase variant E00144, Trp97_Met241_Trp242_Ser245_Met316_Met342, SEQ ID NO: 3, His-tag (Sporobolomyces salmonicolor; … (protein)
chain: MAKIDNAVLPEGSLVLVTGANGFVASHVVEQLLEHGYKVRGTARSASKLANLQKRWDAKYPGRFETAVVEDMLKQGAYDEVIKGAAGVAHIASVVSWSNKYDEVVTPAIGGTLNALRAAAATPSVKRFVLTSSTVSALIPKPNVEGIYLDEKSWNLESIDKAKTLPESDPQKSLWVYAASKTEAELAAWKFMDENKPHFTLNAVLPNYTIGTIFDPETQSGSTSGWMMSLFNGEVSPALAMWPPSYYVSAVDIGLLHLGCLVLPQIERRRVYGTAGTFDWNTVLATFRKLYPSKTFPADFPDQGQDLSKFDTAPSMEILKSLGRPGWRSIEESIKDLVGSEMA
- Km [1]: 175.2 ± 9.9 µM
- kcat [1]: 0.103 ± 0.00333 s⁻¹
- kcat/Km [1]: 593 M⁻¹ s⁻¹

B2: Sporidiobolus salmonicolor ketoreductase, wild type (WT), UniProt Q9UUN9, SEQ ID NO: 1 (Sporobolomyces salmonicolor) (protein)
chain: MAKIDNAVLPEGSLVLVTGANGFVASHVVEQLLEHGYKVRGTARSASKLANLQKRWDAKYPGRFETAVVEDMLKQGAYDEVIKGAAGVAHIASVVSFSNKYDEVVTPAIGGTLNALRAAAATPSVKRFVLTSSTVSALIPKPNVEGIYLDEKSWNLESIDKAKTLPESDPQKSLWVYAASKTEAELAAWKFMDENKPHFTLNAVLPNYTIGTIFDPETQSGSTSGWMMSLFNGEVSPALALMPPQYYVSAVDIGLLHLGCLVLPQIERRRVYGTAGTFDWNTVLATFRKLYPSKTFPADFPDQGQDLSKFDTAPSLEILKSLGRPGWRSIEESIKDLVGSETA
- Km [2]: 11.9 ± 1.1 µM
- kcat [2]: 0.00817 ± 0.000333 s⁻¹
- kcat/Km [2]: 683 M⁻¹ s⁻¹

B3: Sporidiobolus salmonicolor ketoreductase variant E00184 (second line so labelled; in Table 9b W97 V134 A224 K238 M241 W242 S245 G246 M316 M342, the mutations … (protein)
chain: MAKIDNAVLPEGSLVLVTGANGFVASHVVEQLLEHGYKVRGTARSASKLANLQKRWDAKYPGRFETAVVEDMLKQGAYDEVIKGAAGVAHIASVVSWSNKYDEVVTPAIGGTLNALRAAAATPSVKRFVLTSSVVSALIPKPNVEGIYLDEKSWNLESIDKAKTLPESDPQKSLWVYAASKTEAELAAWKFMDENKPHFTLNAVLPNYTIGTIFDPETQSGSTAGWMMSLFNGEVSPKLAMWPPSGYVSAVDIGLLHLGCLVLPQIERRRVYGTAGTFDWNTVLATFRKLYPSKTFPADFPDQGQDLSKFDTAPSMEILKSLGRPGWRSIEESIKDLVGSEMA
notes: second row labelled E00184, evidently E00185
- Km [3]: 143.5 ± 5.5 µM
- kcat [3]: 0.525 ± 0.0133 s⁻¹
- kcat/Km [3]: 3660 M⁻¹ s⁻¹

B4: Sporidiobolus salmonicolor ketoreductase variant E00184, Trp97_Ala224_Lys238_Met241_Trp242_Ser245_Gly246_Met316_Met342, SEQ ID NO: 8, His-tag (Sporobolomyces … (protein)
chain: MAKIDNAVLPEGSLVLVTGANGFVASHVVEQLLEHGYKVRGTARSASKLANLQKRWDAKYPGRFETAVVEDMLKQGAYDEVIKGAAGVAHIASVVSWSNKYDEVVTPAIGGTLNALRAAAATPSVKRFVLTSSTVSALIPKPNVEGIYLDEKSWNLESIDKAKTLPESDPQKSLWVYAASKTEAELAAWKFMDENKPHFTLNAVLPNYTIGTIFDPETQSGSTAGWMMSLFNGEVSPKLAMWPPSGYVSAVDIGLLHLGCLVLPQIERRRVYGTAGTFDWNTVLATFRKLYPSKTFPADFPDQGQDLSKFDTAPSMEILKSLGRPGWRSIEESIKDLVGSEMA
- Km [4]: 471.7 ± 34.6 µM
- kcat [4]: 0.355 ± 0.0167 s⁻¹
- kcat/Km [4]: 753 M⁻¹ s⁻¹

B5: Sporidiobolus salmonicolor ketoreductase variant E00128, Trp97_Met241_Trp242_Ser245, SEQ ID NO: 2, His-tag (Sporobolomyces salmonicolor; F97W/L241M/M242W/Q245S) (protein)
chain: MAKIDNAVLPEGSLVLVTGANGFVASHVVEQLLEHGYKVRGTARSASKLANLQKRWDAKYPGRFETAVVEDMLKQGAYDEVIKGAAGVAHIASVVSWSNKYDEVVTPAIGGTLNALRAAAATPSVKRFVLTSSTVSALIPKPNVEGIYLDEKSWNLESIDKAKTLPESDPQKSLWVYAASKTEAELAAWKFMDENKPHFTLNAVLPNYTIGTIFDPETQSGSTSGWMMSLFNGEVSPALAMWPPSYYVSAVDIGLLHLGCLVLPQIERRRVYGTAGTFDWNTVLATFRKLYPSKTFPADFPDQGQDLSKFDTAPSLEILKSLGRPGWRSIEESIKDLVGSETA
- Km [5]: 162.8 ± 7.8 µM
- kcat [5]: 0.0967 ± 0.00167 s⁻¹
- kcat/Km [5]: 592 M⁻¹ s⁻¹

B6: Sporidiobolus salmonicolor ketoreductase variant E00158, Trp97_Lys238_Met241_Trp242_Ser245_Met316_Met342, SEQ ID NO: 6, His-tag (Sporobolomyces salmonicolor; … (protein)
chain: MAKIDNAVLPEGSLVLVTGANGFVASHVVEQLLEHGYKVRGTARSASKLANLQKRWDAKYPGRFETAVVEDMLKQGAYDEVIKGAAGVAHIASVVSWSNKYDEVVTPAIGGTLNALRAAAATPSVKRFVLTSSTVSALIPKPNVEGIYLDEKSWNLESIDKAKTLPESDPQKSLWVYAASKTEAELAAWKFMDENKPHFTLNAVLPNYTIGTIFDPETQSGSTSGWMMSLFNGEVSPKLAMWPPSYYVSAVDIGLLHLGCLVLPQIERRRVYGTAGTFDWNTVLATFRKLYPSKTFPADFPDQGQDLSKFDTAPSMEILKSLGRPGWRSIEESIKDLVGSEMA
- Km [6]: 299.7 ± 7.9 µM
- kcat [6]: 0.255 ± 0.00667 s⁻¹
- kcat/Km [6]: 853 M⁻¹ s⁻¹
